4 molecules from US20180134794A1 (Regeneron, published 2018) can be followed below.

Assay [1] has as its target T1, human MET (c-Met, hepatocyte growth factor receptor), endogenous on human cell lines (human, UniProt P08581 25-1390).
T1 construct: whole, on cells; also called HGFR
The assay can be described thus: flow cytometry, MDA-MB-231 cells (endogenous MET, low), antibody 10 ug/ml. The procedure:
(§1) After one additional wash with FACS buffer, samples were fixed with Cytofix (BD Biosciences, #554655), filtered with FACS buffer and run on an iQue flow cytometer (Intelicyte). Mean fluorescence intensity (MFI) data was determined using FlowJo software (FlowJo LLC).

Assay [2] concerns the target T1, human MET (c-Met, hepatocyte growth …). Kind of assay: cell-based or functional assay.
Assay [3] has the same target. Kind of assay: flow cytometry, EBC-1 cells (endogenous MET), antibody 10 ug/ml. The protocol:
as §1

Assay [4] shares this target. The assay can be described thus: flow cytometry, NCI-H1993 cells (endogenous MET), antibody 10 ug/ml; expressed as fold above unstained. The procedure: as §1
Assay [5] has the same target. The assay can be described thus: flow cytometry, SNU-5 cells (endogenous MET), antibody 10 ug/ml. The protocol:
as §1

Assay [6] has the same target. The assay can be described thus: flow cytometry, A549 cells (endogenous MET), antibody 10 ug/ml. The protocol: as §1
Assay [7] has the same target. Kind of assay: cell-based or functional assay. The source holds these as a separate data set.
Assay [8] has the same target. The assay can be described thus: flow cytometry, MKN-45 cells (endogenous MET), antibody 10 ug/ml. The procedure:
as §1

The target is the same in assay [9]. The assay can be described thus: flow cytometry, U87MG cells (endogenous MET, low), antibody 10 ug/ml. The protocol:
as §1

The target is the same in assay [10]. Kind of assay: flow cytometry, Hs746t cells (endogenous MET), antibody 10 ug/ml. The procedure: as §1
Assay [11] has as its target T2, human MET (c-Met, HGFR) endogenously expressed on cell lines (human, UniProt P08581 25-1390). Kind of assay: cell-based or functional assay.
The target in assay [12] is T2, human MET (c-Met, HGFR) endogenously …. The assay can be described thus: cell-based or functional assay. This is another data set of the same source.

T1 sequence (P08581 25-1390 limits assumed, form in doubt): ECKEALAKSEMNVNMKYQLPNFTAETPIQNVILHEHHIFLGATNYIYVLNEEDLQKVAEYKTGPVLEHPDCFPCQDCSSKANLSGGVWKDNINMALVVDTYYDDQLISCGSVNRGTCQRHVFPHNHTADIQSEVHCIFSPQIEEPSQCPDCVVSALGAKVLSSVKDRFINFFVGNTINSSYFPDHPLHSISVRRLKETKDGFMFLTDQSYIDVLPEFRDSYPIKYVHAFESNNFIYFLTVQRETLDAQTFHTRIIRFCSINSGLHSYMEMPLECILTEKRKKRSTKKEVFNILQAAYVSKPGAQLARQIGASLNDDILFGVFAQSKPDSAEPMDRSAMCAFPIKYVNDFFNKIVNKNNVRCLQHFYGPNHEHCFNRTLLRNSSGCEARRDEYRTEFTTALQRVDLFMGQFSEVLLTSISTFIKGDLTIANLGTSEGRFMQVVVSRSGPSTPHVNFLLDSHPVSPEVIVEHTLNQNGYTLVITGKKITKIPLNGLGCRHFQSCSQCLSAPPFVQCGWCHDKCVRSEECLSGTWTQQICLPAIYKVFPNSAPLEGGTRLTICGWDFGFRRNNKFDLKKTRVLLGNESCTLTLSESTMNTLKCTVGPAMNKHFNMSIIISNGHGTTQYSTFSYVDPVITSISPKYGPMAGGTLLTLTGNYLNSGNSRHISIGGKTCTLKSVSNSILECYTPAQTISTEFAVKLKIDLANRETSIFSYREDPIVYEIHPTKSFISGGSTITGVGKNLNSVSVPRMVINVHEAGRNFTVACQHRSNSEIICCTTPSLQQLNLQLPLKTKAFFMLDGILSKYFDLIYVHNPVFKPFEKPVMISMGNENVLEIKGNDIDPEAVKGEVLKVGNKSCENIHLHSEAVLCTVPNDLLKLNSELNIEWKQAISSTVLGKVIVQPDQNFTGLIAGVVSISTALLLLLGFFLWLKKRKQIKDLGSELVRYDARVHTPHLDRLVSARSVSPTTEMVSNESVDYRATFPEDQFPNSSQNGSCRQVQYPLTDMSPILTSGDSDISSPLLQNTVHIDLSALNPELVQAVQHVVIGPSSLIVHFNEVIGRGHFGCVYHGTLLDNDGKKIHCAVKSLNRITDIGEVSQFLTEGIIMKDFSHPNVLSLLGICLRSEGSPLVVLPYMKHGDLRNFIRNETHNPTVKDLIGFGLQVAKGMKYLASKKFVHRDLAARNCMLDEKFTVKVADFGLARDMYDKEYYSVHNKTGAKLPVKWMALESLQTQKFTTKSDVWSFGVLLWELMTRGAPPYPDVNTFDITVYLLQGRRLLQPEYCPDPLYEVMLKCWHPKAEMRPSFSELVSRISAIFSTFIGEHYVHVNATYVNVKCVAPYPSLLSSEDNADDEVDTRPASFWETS
T2 sequence (P08581 25-1390): as the sequence (P08581 25-1390 limits assumed, form in doubt) above

B1: H4H14639D (bispecific antibody, human IgG4, V domains shown)
VH 1: EVQLVESGGGLVQPGTSLRLSCAASGFTFDDYAMHWVRQAPGKGLEWVSGITWNSYNIDYADSVKGRFTISRDNAKNSLYLQMNSLRAEDTALYYCAKDDDYSNYVYFDYWGQGTLVTVSS
VH 2: EVQLVESGGGLVQPGGSLRLSCAASGFIVTTNYMTWLRQAPGKGLEWVSLIYSSGHTYYADSVKGRFTISRHNSKNTLYLQMDSLRAEDTAVYYCASAFAADVFDIWGQGTMVTVSS
VL: not shown
notes: human IgG4 Fc; also called No. 122; MET×MET bispecific antibody
On to B1, for which the “FACS Binding (MFI Fold Above Isotype Control)” value came to 12 fold in [1]; 252 fold in [3]; 454 fold in assay [5]; 10 fold in [6]; 156 fold in assay [8]; 18 fold in assay [9]. Also, the “FACS Binding (MFI Fold Above Isotype Control)” value in assay [10] came to 34 fold. Also, in assay [2], the “% Inhibition (HEK293/SRE-Luc Blocking Activity, 1 h mAb pre-bind)” value turned out to be 95%. Also, in assay [2], the “EC50 (Ligand (HGF)-Independent HEK293/SRE-Luc Activation)” value was 0.057 nM. The “Fold Response (Ligand (HGF)-Independent HEK293/SRE-Luc Activation)” value in [2] came out at 1.8 fold. The “IC50 (HEK293/SRE-Luc Blocking Activity, 1 h mAb pre-bind)” value in [2] is 0.024 nM. Moreover, the “FACS Binding (MFI fold above unstained, per footnote)” value in [4] was found to be 188 fold. The “Relative MET Level, NCI-H596 cells, antibody 5 ug/ml, 18 hours, immunoblot” value in assay [7] was 0.24 relative to control (hFc).

B2: H4H13312P2 (antibody, human IgG4, V domains shown)
VH: B1 VH 2
VL: not shown
For the molecule B2, the “EC50 (read off the curve), HGF-independent SRE-luciferase activation” value in assay [11] was approximately 0.4 nM.

B3: H4H14639D (bispecific antibody, V domains shown)
VH 1: B1 VH 1
VH 2: B1 VH 2
VL: not shown
For the molecule B3, the “IC50 (read off the curve), inhibition of HGF-induced SRE-luciferase signal” value in assay [12] was approximately 0.4 nM.

B4: H4H14635D (bispecific antibody, human IgG4, V domains shown)
VH 1: QVQLVESGGGVVQPGRSLRVSCVVSGFTFSSFGMHWVRQAPDKGLEWVAVIWYDGSNDYYSDSVKGRFTISRDNSKNTLFLQMNRLRAEDTAVYYCARANNWNRFDAFDLWGQGTMVTVSS
VH 2: B1 VH 2
VL: not shown
notes: human IgG4 Fc; also called No. 42; MET×MET bispecific antibody
For the molecule B4, the “FACS Binding (MFI Fold Above Isotype Control)” value in assay [1] is 11 fold; in [3], 263 fold; in assay [5], 477 fold; in [6] it was 12 fold; in assay [8], 183 fold; in assay [9] it was 18 fold. The “FACS Binding (MFI Fold Above Isotype Control)” value in [10] is 39 fold. Moreover, the “% Inhibition (HEK293/SRE-Luc Blocking Activity, 1 h mAb pre-bind)” value in assay [2] turned out to be 85%. Besides, the “EC50 (Ligand (HGF)-Independent HEK293/SRE-Luc Activation)” value in [2] came out at 1.4 nM. Also, the “Fold Response (Ligand (HGF)-Independent HEK293/SRE-Luc Activation)” value in assay [2] is 2.2 fold. For the same molecule, in assay [2], the “IC50 (HEK293/SRE-Luc Blocking Activity, 1 h mAb pre-bind)” value turned out to be 0.19 nM.
